Measurements from patent US20060051359A1.

Target: 8H9 antigen (human) (UniProt Q5ZPR3)
Experiment: cell-based or functional assay

UniProt Q5ZPR3, sequence (Q5ZPR3 29-534): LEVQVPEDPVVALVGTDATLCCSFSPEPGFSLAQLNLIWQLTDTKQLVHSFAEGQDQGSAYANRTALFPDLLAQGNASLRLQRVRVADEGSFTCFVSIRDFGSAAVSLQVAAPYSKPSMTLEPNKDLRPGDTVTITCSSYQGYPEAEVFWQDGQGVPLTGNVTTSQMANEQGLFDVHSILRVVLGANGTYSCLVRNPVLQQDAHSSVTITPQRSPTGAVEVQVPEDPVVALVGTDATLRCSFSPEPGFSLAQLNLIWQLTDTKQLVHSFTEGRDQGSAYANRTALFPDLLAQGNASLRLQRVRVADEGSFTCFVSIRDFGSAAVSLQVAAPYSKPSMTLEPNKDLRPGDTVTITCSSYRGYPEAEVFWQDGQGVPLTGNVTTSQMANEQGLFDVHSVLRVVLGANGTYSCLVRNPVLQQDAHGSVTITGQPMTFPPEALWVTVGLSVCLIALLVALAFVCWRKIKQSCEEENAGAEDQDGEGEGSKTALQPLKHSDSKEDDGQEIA

Substance: 8H9(scFv)-PE38
- IC50 of 8H9(Fv)-PE38 (ng/ml) on BT-474 cells: 20 ng/mL
- IC50 of 8H9(Fv)-PE38 (ng/ml) on CRL1427 (MG63) cells: 50 ng/mL
- IC50 of 8H9(Fv)-PE38 (ng/ml) on LAN-1 cells: 12.5 ng/mL
- IC50 of 8H9(Fv)-PE38 (ng/ml) on MCF-7 cells: 5 ng/mL
- IC50 of 8H9(Fv)-PE38 (ng/ml) on NMB-7 cells: 9 ng/mL
- IC50 of 8H9(Fv)-PE38 (ng/ml) on OHS-M1 cells: 20 ng/mL
- IC50 of 8H9(Fv)-PE38 (ng/ml) on SK-N-BE(2) cells: 90 ng/mL
- IC50 of 8H9(Fv)-PE38 (ng/ml) on U2OS cells: 30 ng/mL
- IC50 of 8H9(Fv)-PE38 (ng/ml) on ZR-75-1 cells: 35 ng/mL
